Experimental data: patent publication US12365732 (23ANDME, dated 2025)
Numbering of substitutions follows the chain as printed. Names may count otherwise. One block for each binder: values may come before it.

How the values were obtained:
[1] = molecular target: T1, cy-CD96 (soluble, extracellular domain) (cynomolgus monkey, UniProt P40200 22-516 (human entry), biotinylated in Octet and blocking ELISA); test: phage competition ELISA, soluble CD96 vs coated hu-CD96
T1 construct: the assays name only cy-CD96; also called biotinylated cy-CD96
T1 chain: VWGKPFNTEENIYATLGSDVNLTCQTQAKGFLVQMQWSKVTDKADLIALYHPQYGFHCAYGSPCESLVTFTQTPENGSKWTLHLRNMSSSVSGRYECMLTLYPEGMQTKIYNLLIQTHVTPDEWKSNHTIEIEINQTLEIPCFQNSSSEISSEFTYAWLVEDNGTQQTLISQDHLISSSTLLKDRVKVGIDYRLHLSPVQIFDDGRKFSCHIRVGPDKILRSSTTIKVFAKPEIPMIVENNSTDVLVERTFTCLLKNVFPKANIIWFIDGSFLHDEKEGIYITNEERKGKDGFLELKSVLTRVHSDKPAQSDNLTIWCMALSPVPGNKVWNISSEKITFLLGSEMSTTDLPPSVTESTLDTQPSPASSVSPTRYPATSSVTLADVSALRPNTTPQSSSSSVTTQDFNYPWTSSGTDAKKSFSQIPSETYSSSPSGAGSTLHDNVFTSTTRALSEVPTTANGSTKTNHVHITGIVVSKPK
Experimental: 192 colonies from most stringent selections (biotinylated 0.1 nM of hu-CD96 or cy-CD96 with 1000× non-biotinylated human or cy-CD96) were grown in 400 µL 2YT with 4 µL helper phage M13KO7 overnight at 37° C. with shaking. After spinning down the pellet, the phage supernatant was diluted 1:1 with 2 nM hu-CD96, 20 nM cy-CD96 and ELISA buffer (0.5% BSA and 0.05% TWEEN®20 in PBS) in total […] and incubated for two hours at room temperature with agitation. The […] of mixture was transferred to hu-CD96 coated plate for 15 min to capture unbound phage. The plate was washed with wash buffer (0.05% TWEEN®20 in PBS), and HRP-conjugated anti-M13 antibody (Sino biological, Cat #11973-MM05-H-50) was added in ELISA buffer for 30 min. […] Enzymatic color development was stopped using TMB stop solution (VWR, Cat #95059-200). Plates were analyzed with a SpectraMax i3X plate reader (Molecular Devices). The % inhibition was calculated by the $OD450$ of wells with hu-CD96/cy-CD96 competitor divided by $OD450$ of wells with buffer alone. The lower % inhibition indicated higher phage $IC50$ against hu-CD96 or cy-CD96.
Selected top inhibition % phage variants from single spot competition were purified from culture supernatants. The optimal phage concentration was incubated with serially-diluted hu-CD96 or cy-CD96 in ELISA buffer in NUNC F plate for two hours. The […] of the mixture was transferred to hu-CD96 coated wells for 15 min to capture unbound phage. The plate was washed with wash buffer (0.05% TWEEN®20 in PBS), and HRP-conjugated anti-M13 antibody (Sino biological, Cat #11973-MM05-H-50) was added in ELISA buffer for 30 min. The plates were washed and developed as described above. The absorbance at 450 nm was plotted as a function of antigen concentration in solution to determine phage $IC50$.

[2] = molecular target: T1, cy-CD96 (soluble, extracellular domain); test: ELISA, blocks biotin-CD96 binding to coated hu-CD155-mFc
Experimental: The selected 5 affinity matured Fab variants of mAb1.v7 Fab were assayed for blocking of human CD155 (hu-CD155) receptor by ELISA as follows. Briefly, 96-well MAXISORP® flat bottom plates (Thermofisher, Cat #439454) were coated overnight at 4° C. with 2 µg/mL goat anti-mouse Fc (Thermofisher, Cat #31168) in PBS. After removing the coating solution, unspecific binding was blocked with PBS containing 1% bovine serum albumin (BSA) and incubation at room temperature for one hour. Plates were then washed five times in PBS with 0.05% TWEEN®-20 (wash buffer) and added […] hu-CD155-mFc in PBS for 1 hour in room temperature. During blocking period, 50 µL/well of 4 nM biotinylated hu-CD96 or 40 nM biotinylated cy-CD96 with serial dilution of the Fab variants 50 µL/well (starting at 2 µM, 1:3 dilution) for two hours at room temperature with PBS containing 0.5% BSA and 0.05% Tween 20 (ELISA buffer) in NUNC F plate (Thermofisher, Cat #269620). Then transferred the antigen-antibody mix solution 80 µL/well into hu-CD155-mFc coated wells at room temperature for 15 min. Plates were then washed with wash buffer to which was added 50 µL/well Streptavidin poly-HRP (Thermofisher, Cat #21140) diluted 1:5000 in ELISA buffer at room temperature for one hour with agitation. […] Enzymatic color development was stopped with 50 µL/well of TMB stop solution (VWR, Cat #95059-200). Plates were analyzed with a SpectraMax i3X plate reader (Molecular Devices) at 450 nm. […] The blocking $IC50$ values for the mAbv1.7 and the 5 selected affinity matured Fab variants (mAb1.v7.2, mAb1.v7.9, mAb1.v7.16, mAb1.v7.48, mAb1.v7.70) are summarized in Table 10 (above).

IC50 [1]: 1.8 nM
IC50 [2]: 2.17 nM
B1: mAb1.v7.2 Fab (Fab, V domains shown)
VH: EVQLVQSGAEVKKPGASVKVSCKASGFTFTNNWRHWVRQAPGQGLEWIGMIHFNSGITNINEKFKNRVTMTTDTSTSTAYMELRSLRSEDTAVYYCRSDGVYEGYFDYWGQGTLVTVSS
VL: DIQLTQSPSSLSASVGDRVTITCKASQNVGTAIVWYQQKPGKAPKVLIYSASTRYTGVPSRFSGSGSGTDFTLTISSLQPEDFATYYCQQYSSSPLTFGQGTKVEIK
notes: also called M34R/P52aF/T97V

IC50 [1]: 0.3 nM
IC50 [2]: 4.8 nM
B2: mAb1.v7.48 Fab (Fab, V domains shown)
VH: B1 VH with N32R, R34M, F53H
VL: B1 VL
notes: also called N32R/P52aH/T97V

IC50 [1]: 0.4 nM
IC50 [2]: 2 nM
B3: mAb1.v7.70 Fab (Fab, V domains shown)
VH: B1 VH with N32R, R34M, F53A
VL: B1 VL
notes: also called N32R/P52aA/T97V

IC50 [1]: 1.6 nM
IC50 [2]: 1.42 nM
B4: mAb1.v7.16 Fab (Fab, V domains shown)
VH: B1 VH with F53P
VL: B1 VL
notes: also called M34R/T97V

IC50 [1]: 0.37 nM
IC50 [2]: 3.18 nM
B5: mAb1.v7.9 Fab (Fab, V domains shown)
VH: B1 VH with F53M
VL: B1 VL
notes: also called M34R/P52aM/T97V
